Reference: patent publication US20250074971A1

What was measured:
[1] = target: Senecavirus A (SVA) particles (Senecavirus A); assay: ELISA, coated SVA, Fc control
[2] = target: Foot-and-Mouth Disease Virus (FMDV) particles (Foot-and-Mouth Disease Virus); assay: ELISA, coated FMDV, Fc control

Fc gave an A450 [1] of 0.218 A450 and an A450 [2] of 0.054 A450.
